# Columns and labels:
# [1] = target: myostatin mature C-terminal dimer (purified from CHO cell conditioned medium) (UniProt O08689); assay: inhibition of labeled myostatin binding to Act RIIB-transfected COS-7 cells
# [2] = target: cell surface GDF-8 binding proteins on L6 myoblasts; assay: I-125 labeled GDF-8 receptor-ligand binding assay on myoblast cells
# [3] = target: myostatin mature C-terminal dimer (purified from CHO cell conditioned medium) (UniProt O08689); assay: inhibition of labeled myostatin binding to Act RIIB-transfected COS-7 cells; reference: follistatin Ki of approximately 470 pM
# myostatin mature C-terminal dimer (purified from CHO cell conditioned medium), sequence (O08689 268-376 limits assumed): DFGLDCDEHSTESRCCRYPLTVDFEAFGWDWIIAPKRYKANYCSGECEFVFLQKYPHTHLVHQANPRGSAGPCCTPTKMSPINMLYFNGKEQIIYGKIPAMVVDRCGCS
# Recombinant human GDF-8 (rhGDF-8) homodimer, sequence (O14793 267-374): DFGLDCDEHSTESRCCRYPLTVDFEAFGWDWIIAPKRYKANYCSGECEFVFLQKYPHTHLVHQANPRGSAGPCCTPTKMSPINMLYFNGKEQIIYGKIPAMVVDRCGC
substance,measurement,setting,value
follistatin,Ki,[1],0.47 nM
Recombinant human GDF-8 (rhGDF-8) homodimer (from UniProt O14793 267-374) (ligand),Kd,[2],0.37 nM
myostatin prodomain peptide (purified from CHO cell conditioned medium) (from UniProt O08689 25-267),"Ki, fold relative to the Ki of follistatin",[3],50 fold

# From patent US20110034372A1
